Measurements: patent US20170298146A1 (MODIQUEST B V, published 2017)
Non-standard residues stand in square brackets, D forms with d. No end group written: not given here. Cit = NC(=O)NCCC[C@H](N)C(=O)O

Assays:
[1] = target: T1, human recombinant histone H2A (human); experiment: ELISA, 0.4 ug/well
T1 construct: Non-deiminated
Procedure: (§1) CFC-1 and CFC-0 were coated at the same concentration and served as positive and negative controls, respectively, for specific anti-citrulline reactivity and as coating controls. Non-coated wells were used to test for aspecific binding of the antibodies. […] Detection of bound anti-citrulline antibodies was performed by incubating the wells with rabbit-anti-human-HRP (1:2000) for one hour at RT followed by incubation with TMB substrate. The resulting OD (y-axis) is a measure for antibody binding. H1=recombinant histone 1; H1/p2=huPAD2 recombinant histone 1; H1/p4=huPAD4 recombinant histone 1 and so forth (x-axis).

[2] = target: T2, huPAD2 deiminated human recombinant histone H2A (human); experiment: ELISA, 0.4 ug/well
T2 construct: also called H2A/p2
Procedure: as §1

[3] = target: T3, huPAD4 deiminated human recombinant histone H2A (human); experiment: ELISA, 0.4 ug/well
T3 construct: also called H2A/p4; huPAD4 deiminated histone 2A
Procedure: as §1

[4] = target: T4, huPAD2 deiminated human recombinant histone H2B (human); experiment: ELISA, 0.4 ug/well
T4 construct: also called H2B/p2
Procedure: as §1

[5] = target: T5, huPAD4 deiminated human recombinant histone H2B (human); experiment: ELISA, 0.4 ug/well
T5 construct: also called H2B/p4
Procedure: as §1

[6] = target: T6, huPAD2 deiminated human recombinant histone H3 (human); experiment: ELISA, 0.4 ug/well
T6 construct: also called H3/p2
Procedure: as §1

[7] = target: T7, huPAD4 deiminated human recombinant histone H3 (human); experiment: ELISA, 0.4 ug/well
T7 construct: also called H3/p4
Procedure: as §1

[8] = target: human recombinant histone H4 (human, UniProt P62805 2-103); experiment: ELISA, 0.4 ug/well
Procedure: as §1

CFC-1 [9] = target: T8, CFC-1; experiment: ELISA, 0.4 ug/well
T8 construct: Positive control for anti-citrulline reactivity; also called cfc1 XG
Procedure: as §1

CFC-1 [10] = target: T8, CFC-1; experiment: peptide ELISA, 0.00064 ug/well
Procedure: as §1, with “Biotin and citrulline-containing peptides derived from histone 2A were immobilized on NEUTRAVIDIN®-coated 96-well ELISA plates (0.3 μg/well). CFC-1” for “CFC-1”, “controls respectively” for “controls, respectively,”, “binding.” for “binding. H1=recombinant histone 1; H1/p2=huPAD2 recombinant histone 1; H1/p4=huPAD4 recombinant histone 1 and so forth (x-axis).”
(§2) Ninety-six-well ELISA plates were coated with NEUTRAVIDIN® (0.1 μg/well) by overnight incubation at 4° C. Wells were washed five times with PBS-TWEEN®-20 (PBS-T) and blocked by a one-hour incubation with PBS-T+1% Bovine serum albumin (BSA) at room temperature (RT). After five more washes with PBS-T, wells were incubated for one hour at RT with histone-derived citrulline and biotin-containing peptides (0.3 μg/well). […] Wells were washed five times with PBS-T and incubated with rabbit-anti-human-HRP (1:2000) for one hour at RT followed by five washes with PBS-T and three wash steps with PBS. Wells were incubated for five minutes with TMB substrate before stopping the reaction with 2 M H₂SO₄. Optical density was measured by 450 nm and is a measure for the affinity of the antibodies used.

[11] = target: T9, Histone 2A citrulline-containing peptide 1 (human, also: biotin label); experiment: peptide ELISA, 0.00064 ug/well
T9 construct: also called AAASGXGKQGGK
T9 peptide: AAASG[Cit]GKQGGK
Procedure: as §1, with “Biotin and citrulline-containing peptides derived from histone 2A were immobilized on NEUTRAVIDIN®-coated 96-well ELISA plates (0.3 μg/well). CFC-1” for “CFC-1”, “controls respectively” for “controls, respectively,”, “binding.” for “binding. H1=recombinant histone 1; H1/p2=huPAD2 recombinant histone 1; H1/p4=huPAD4 recombinant histone 1 and so forth (x-axis).”
as §2

[12] = target: T10, Histone 2A citrulline-containing peptide 2 (human, also: biotin label); experiment: peptide ELISA, 0.00064 ug/well
T10 peptide: AKAKS[Cit]SSRAGL
Procedure: as §1, with “Biotin and citrulline-containing peptides derived from histone 2A were immobilized on NEUTRAVIDIN®-coated 96-well ELISA plates (0.3 μg/well). CFC-1” for “CFC-1”, “controls respectively” for “controls, respectively,”, “binding.” for “binding. H1=recombinant histone 1; H1/p2=huPAD2 recombinant histone 1; H1/p4=huPAD4 recombinant histone 1 and so forth (x-axis).”
as §2

[13] = target: T11, Histone 2A citrulline-containing peptide 4 (human, also: biotin label); experiment: peptide ELISA, 0.00064 ug/well
T11 peptide: QFPVG[Cit]VHRLLR
Procedure: as §1, with “Biotin and citrulline-containing peptides derived from histone 2A were immobilized on NEUTRAVIDIN®-coated 96-well ELISA plates (0.3 μg/well). CFC-1” for “CFC-1”, “controls respectively” for “controls, respectively,”, “binding.” for “binding. H1=recombinant histone 1; H1/p2=huPAD2 recombinant histone 1; H1/p4=huPAD4 recombinant histone 1 and so forth (x-axis).”
as §2

[14] = target: T12, Histone 2A citrulline-containing peptide 5 (human, also: biotin label); experiment: peptide ELISA, 0.00064 ug/well
T12 peptide: VGRVH[Cit]LLRKGN
Procedure: as §1, with “Biotin and citrulline-containing peptides derived from histone 2A were immobilized on NEUTRAVIDIN®-coated 96-well ELISA plates (0.3 μg/well). CFC-1” for “CFC-1”, “controls respectively” for “controls, respectively,”, “binding.” for “binding. H1=recombinant histone 1; H1/p2=huPAD2 recombinant histone 1; H1/p4=huPAD4 recombinant histone 1 and so forth (x-axis).”
as §2

[15] = target: T13, Histone 2A citrulline-containing peptide 8 (human, also: biotin label); experiment: peptide ELISA, 0.00064 ug/well
T13 peptide: AGNAA[Cit]DNKKTR
Procedure: as §1, with “Biotin and citrulline-containing peptides derived from histone 2A were immobilized on NEUTRAVIDIN®-coated 96-well ELISA plates (0.3 μg/well). CFC-1” for “CFC-1”, “controls respectively” for “controls, respectively,”, “binding.” for “binding. H1=recombinant histone 1; H1/p2=huPAD2 recombinant histone 1; H1/p4=huPAD4 recombinant histone 1 and so forth (x-axis).”
as §2

[16] = target: T14, Histone 2A citrulline-containing peptide 9 (human, also: biotin label); experiment: peptide ELISA, 0.00064 ug/well
T14 peptide: DNKKT[Cit]IIPRHL
Procedure: as §1, with “Biotin and citrulline-containing peptides derived from histone 2A were immobilized on NEUTRAVIDIN®-coated 96-well ELISA plates (0.3 μg/well). CFC-1” for “CFC-1”, “controls respectively” for “controls, respectively,”, “binding.” for “binding. H1=recombinant histone 1; H1/p2=huPAD2 recombinant histone 1; H1/p4=huPAD4 recombinant histone 1 and so forth (x-axis).”
as §2

[17] = target: T15, Histone 2A citrulline-containing peptide 11 (human, also: biotin label); experiment: peptide ELISA, 0.00064 ug/well
T15 peptide: LQLAI[Cit]NDEELN
Procedure: as §1, with “Biotin and citrulline-containing peptides derived from histone 2A were immobilized on NEUTRAVIDIN®-coated 96-well ELISA plates (0.3 μg/well). CFC-1” for “CFC-1”, “controls respectively” for “controls, respectively,”, “binding.” for “binding. H1=recombinant histone 1; H1/p2=huPAD2 recombinant histone 1; H1/p4=huPAD4 recombinant histone 1 and so forth (x-axis).”
as §2

CFC-1 [18] = target: T8, CFC-1; experiment: peptide ELISA, 0.000128 ug/well
Procedure: as §1, with “Biotin and citrulline-containing peptides derived from histone 2A were immobilized on NEUTRAVIDIN®-coated 96-well ELISA plates (0.3 μg/well). CFC-1” for “CFC-1”, “controls respectively” for “controls, respectively,”, “binding.” for “binding. H1=recombinant histone 1; H1/p2=huPAD2 recombinant histone 1; H1/p4=huPAD4 recombinant histone 1 and so forth (x-axis).”
as §2

[19] = target: T9, Histone 2A citrulline-containing …; experiment: peptide ELISA, 0.000128 ug/well
Procedure: as §1, with “Biotin and citrulline-containing peptides derived from histone 2A were immobilized on NEUTRAVIDIN®-coated 96-well ELISA plates (0.3 μg/well). CFC-1” for “CFC-1”, “controls respectively” for “controls, respectively,”, “binding.” for “binding. H1=recombinant histone 1; H1/p2=huPAD2 recombinant histone 1; H1/p4=huPAD4 recombinant histone 1 and so forth (x-axis).”
as §2

[20] = target: T10, Histone 2A citrulline-containing …; experiment: peptide ELISA, 0.000128 ug/well
Procedure: as §1, with “Biotin and citrulline-containing peptides derived from histone 2A were immobilized on NEUTRAVIDIN®-coated 96-well ELISA plates (0.3 μg/well). CFC-1” for “CFC-1”, “controls respectively” for “controls, respectively,”, “binding.” for “binding. H1=recombinant histone 1; H1/p2=huPAD2 recombinant histone 1; H1/p4=huPAD4 recombinant histone 1 and so forth (x-axis).”
as §2

[21] = target: T16, Histone 2A citrulline-containing peptide 3 (human, also: biotin label); experiment: peptide ELISA, 0.000128 ug/well
T16 peptide: KSRSS[Cit]AGLQFP
Procedure: as §1, with “Biotin and citrulline-containing peptides derived from histone 2A were immobilized on NEUTRAVIDIN®-coated 96-well ELISA plates (0.3 μg/well). CFC-1” for “CFC-1”, “controls respectively” for “controls, respectively,”, “binding.” for “binding. H1=recombinant histone 1; H1/p2=huPAD2 recombinant histone 1; H1/p4=huPAD4 recombinant histone 1 and so forth (x-axis).”
as §2

[22] = target: T12, Histone 2A citrulline-containing …; experiment: peptide ELISA, 0.000128 ug/well
Procedure: as §1, with “Biotin and citrulline-containing peptides derived from histone 2A were immobilized on NEUTRAVIDIN®-coated 96-well ELISA plates (0.3 μg/well). CFC-1” for “CFC-1”, “controls respectively” for “controls, respectively,”, “binding.” for “binding. H1=recombinant histone 1; H1/p2=huPAD2 recombinant histone 1; H1/p4=huPAD4 recombinant histone 1 and so forth (x-axis).”
as §2

[23] = target: T17, Histone 2A citrulline-containing peptide 6 (human, also: biotin label); experiment: peptide ELISA, 0.000128 ug/well
T17 peptide: VHRLL[Cit]KGNYSE
Procedure: as §1, with “Biotin and citrulline-containing peptides derived from histone 2A were immobilized on NEUTRAVIDIN®-coated 96-well ELISA plates (0.3 μg/well). CFC-1” for “CFC-1”, “controls respectively” for “controls, respectively,”, “binding.” for “binding. H1=recombinant histone 1; H1/p2=huPAD2 recombinant histone 1; H1/p4=huPAD4 recombinant histone 1 and so forth (x-axis).”
as §2

[24] = target: T13, Histone 2A citrulline-containing …; experiment: peptide ELISA, 0.000128 ug/well
Procedure: as §1, with “Biotin and citrulline-containing peptides derived from histone 2A were immobilized on NEUTRAVIDIN®-coated 96-well ELISA plates (0.3 μg/well). CFC-1” for “CFC-1”, “controls respectively” for “controls, respectively,”, “binding.” for “binding. H1=recombinant histone 1; H1/p2=huPAD2 recombinant histone 1; H1/p4=huPAD4 recombinant histone 1 and so forth (x-axis).”
as §2

[25] = target: T14, Histone 2A citrulline-containing …; experiment: peptide ELISA, 0.000128 ug/well
Procedure: as §1, with “Biotin and citrulline-containing peptides derived from histone 2A were immobilized on NEUTRAVIDIN®-coated 96-well ELISA plates (0.3 μg/well). CFC-1” for “CFC-1”, “controls respectively” for “controls, respectively,”, “binding.” for “binding. H1=recombinant histone 1; H1/p2=huPAD2 recombinant histone 1; H1/p4=huPAD4 recombinant histone 1 and so forth (x-axis).”
as §2

[26] = target: T18, Histone 2A citrulline-containing peptide 10 (human, also: biotin label); experiment: peptide ELISA, 0.000128 ug/well
T18 peptide: TRIIP[Cit]HLQLAI
Procedure: as §1, with “Biotin and citrulline-containing peptides derived from histone 2A were immobilized on NEUTRAVIDIN®-coated 96-well ELISA plates (0.3 μg/well). CFC-1” for “CFC-1”, “controls respectively” for “controls, respectively,”, “binding.” for “binding. H1=recombinant histone 1; H1/p2=huPAD2 recombinant histone 1; H1/p4=huPAD4 recombinant histone 1 and so forth (x-axis).”
as §2

[27] = target: T15, Histone 2A citrulline-containing …; experiment: peptide ELISA, 0.000128 ug/well
Procedure: as §1, with “Biotin and citrulline-containing peptides derived from histone 2A were immobilized on NEUTRAVIDIN®-coated 96-well ELISA plates (0.3 μg/well). CFC-1” for “CFC-1”, “controls respectively” for “controls, respectively,”, “binding.” for “binding. H1=recombinant histone 1; H1/p2=huPAD2 recombinant histone 1; H1/p4=huPAD4 recombinant histone 1 and so forth (x-axis).”
as §2

B1: RhmAb2.102 (antibody, human IgG1, lambda)
heavy: not shown
light: QSVLTQPPSMSAAPGQKVTISCSGSSSNIGNNYVSWYQQVPGTAPKLLIYDDNKRPSGIPGRFSGSKSATSATLGITGLQAGDEADYYCGSWDDNLSVVLFGGGTKLTVLGQPKAAPSVTLFPPSSEELQANKATLVCLISDFYPGAVTVAWKADSSPVKAGVETTTPSKQSNNKYAASSYLSLTPEQWKSHRSYSCQVTHEGSTVEKTVAPTECS
notes: Human IgG1 lambda; also called Rhm2.102
- OD [1]: 0.071 OD
- OD [2]: 3.08 OD
- OD [3]: 2.72 OD
- OD [4]: 0.06 OD
- OD [5]: 0.054 OD
- OD [6]: 1.18 OD
- OD [7]: 0.166 OD
- OD [8]: 0.091 OD
- OD (CFC-1 [9]): 3.12 OD
- OD (CFC-1 [10]): 0.621 OD
- OD [11]: 0.16 OD
- OD [12]: 0.055 OD
- OD [13]: 0.063 OD
- OD [14]: 0.067 OD
- OD [15]: 0.057 OD
- OD [16]: 0.059 OD
- OD [17]: 0.06 OD
- OD (CFC-1 [18]): 0.749 OD
- OD [19]: 0.128 OD
- OD [20]: 0.075 OD
- OD [21]: 0.063 OD
- OD [22]: 0.059 OD
- OD [23]: 0.054 OD
- OD [24]: 0.055 OD
- OD [25]: 0.055 OD
- OD [26]: 0.057 OD
- OD [27]: 0.059 OD
